The target of data set [1] is T1, GST-p150 (human, UniProt F5H433 1-1005).
T1 sequence: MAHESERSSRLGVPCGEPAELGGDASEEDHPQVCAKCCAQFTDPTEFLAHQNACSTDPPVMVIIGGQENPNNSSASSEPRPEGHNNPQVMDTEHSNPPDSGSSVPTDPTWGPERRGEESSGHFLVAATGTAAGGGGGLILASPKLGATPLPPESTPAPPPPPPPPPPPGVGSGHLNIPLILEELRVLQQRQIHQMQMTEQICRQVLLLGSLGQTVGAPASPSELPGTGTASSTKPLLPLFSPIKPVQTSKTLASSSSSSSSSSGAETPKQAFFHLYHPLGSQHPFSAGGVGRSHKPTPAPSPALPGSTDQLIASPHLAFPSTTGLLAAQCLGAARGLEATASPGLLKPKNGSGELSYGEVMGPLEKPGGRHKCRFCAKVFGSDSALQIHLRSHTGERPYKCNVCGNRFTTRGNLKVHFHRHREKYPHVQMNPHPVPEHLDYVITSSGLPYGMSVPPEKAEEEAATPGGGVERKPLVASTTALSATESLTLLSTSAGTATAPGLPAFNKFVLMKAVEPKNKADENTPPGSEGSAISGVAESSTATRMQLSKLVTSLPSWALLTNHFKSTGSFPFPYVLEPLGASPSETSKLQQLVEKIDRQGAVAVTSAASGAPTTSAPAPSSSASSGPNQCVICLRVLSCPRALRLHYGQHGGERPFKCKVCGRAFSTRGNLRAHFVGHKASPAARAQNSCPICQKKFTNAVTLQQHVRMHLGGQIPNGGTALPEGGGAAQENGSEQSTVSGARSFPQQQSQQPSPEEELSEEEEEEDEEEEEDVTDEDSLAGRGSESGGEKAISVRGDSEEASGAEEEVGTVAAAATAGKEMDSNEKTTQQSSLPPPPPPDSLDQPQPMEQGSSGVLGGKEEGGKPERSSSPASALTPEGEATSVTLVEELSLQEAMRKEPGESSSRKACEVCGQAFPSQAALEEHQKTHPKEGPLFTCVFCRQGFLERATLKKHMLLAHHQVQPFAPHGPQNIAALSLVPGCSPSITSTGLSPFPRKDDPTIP
Put plainly: EMSA; 100 ng protein, 200 ng poly(dA-dT); 10 mM HEPES pH 7.5, 25 nM KCl (so in the source), 2.5 mM MgCl (so in the source), 5 µl ZnCl, 3% glycerol, 2 µg BSA, 200 ng poly(dA-dT); temperature not stated. The settings on record: protein: recombinant; tags: GST; label: 32P (probe); blunt.

For data set [2], the target named is T1, GST-p150. Kind of data set: competition; 50x unlabeled Oct1 vs labeled NHE III1; 10 mM HEPES pH 7.5, 25 nM KCl (so in the source), 2.5 mM MgCl (so in the source), 5 µl ZnCl, 3% glycerol, 2 µg BSA, 200 ng poly(dA-dT); temperature not stated. Conditions: protein: recombinant; tags: GST; blunt.

B1: NHE III1 of c-MYC promoter (dsDNA)
DNA 1: TGGGGAGGGTGGGGAGGGTGGGGAAGG
DNA 2: CCTTCCCCACCCTCCCCACCCTCCCCA
For the molecule B1, in the data set with GST-p150 [1], the binding result is listed as “binds”.

B2: Oct1 binding site (dsDNA)
DNA 1: TGTCGAATGCAAATCACTAGAA
DNA 2: TTCTAGTGATTTGCATTCGACA
For the molecule B2, the binding result with GST-p150 [2] is reported as “no binding”.

B3: p150 consensus sequence (CS) (dsDNA)
DNA 1: GGATCACTGGGTGGGAATCACGCT
DNA 2: AGCGTGATTCCCACCCAGTGATCC
B3: the binding result with GST-p150 [1] is “binds”.
